From patent US20250339531A1, “DUX4 POLYPEPTIDES AND NUCLEIC ACIDS FOR TREATING INFLAMMATORY AND AUTOIMMUNE CONDITIONS” (Fred Hutchinson Cancer Center, priority 2021, published 2025)
“Also recorded” adds a separate entry of the source.

Assays:
STAT1 = molecular target: T1, STAT1 (Homo sapiens, UniProt P42224); test: Immunofluorescence of STAT1 distribution; assay type: cell-based; details: MB135 cells, IFNG ± doxycycline
T1 construct: co-localization of endogenous STAT1 and pSTAT1 701 with the iDUX4-CTD; endogenous in cells; host or cells: MB135 human myoblasts carrying doxycycline-inducible DUX4 / DUX4-CTD / DUXB / Dux transgenes, with or without IFNG
T1 sequence (P42224 1-750): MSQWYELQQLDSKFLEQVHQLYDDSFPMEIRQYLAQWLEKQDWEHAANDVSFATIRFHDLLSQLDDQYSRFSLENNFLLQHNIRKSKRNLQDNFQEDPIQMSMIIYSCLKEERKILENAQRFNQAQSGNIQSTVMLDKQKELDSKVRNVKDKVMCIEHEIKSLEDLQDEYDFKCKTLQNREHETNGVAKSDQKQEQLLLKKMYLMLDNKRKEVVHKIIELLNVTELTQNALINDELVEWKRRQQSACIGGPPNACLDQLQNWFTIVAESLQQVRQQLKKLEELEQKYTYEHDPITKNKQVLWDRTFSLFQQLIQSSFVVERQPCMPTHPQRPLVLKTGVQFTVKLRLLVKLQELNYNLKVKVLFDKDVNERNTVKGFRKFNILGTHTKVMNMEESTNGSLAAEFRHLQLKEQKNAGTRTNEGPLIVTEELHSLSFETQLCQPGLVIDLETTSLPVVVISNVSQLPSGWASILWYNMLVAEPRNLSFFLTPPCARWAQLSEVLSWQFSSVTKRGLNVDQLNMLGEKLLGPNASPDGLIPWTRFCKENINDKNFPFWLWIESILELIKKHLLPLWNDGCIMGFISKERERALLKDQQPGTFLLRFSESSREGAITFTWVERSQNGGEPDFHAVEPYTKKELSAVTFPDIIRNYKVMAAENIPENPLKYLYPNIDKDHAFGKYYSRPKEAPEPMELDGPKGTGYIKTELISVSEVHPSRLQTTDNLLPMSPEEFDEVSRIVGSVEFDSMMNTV
Protocol: Cells were fixed for 10 minutes with 2% paraformaldehyde (Thermo Scientific) for DUX4/STAT1 and 4% paraformaldehyde for DUX4/IDO1 then permeabilized for 10 minutes with 0.5% Triton X-100 (Sigma), both at room temperature with gentle shaking. Cells were then blocked for 2 hours with PBS/0.3M glycine/3% BSA at room temperature with gentle shaking. Primary antibodies were incubated at 4° C. overnight: mouse anti-FLAG M2 1:500 (Sigma #F1804), rabbit anti-STAT1 mAb 1:750 (Abcam #ab109320), rabbit anti-IDO1 (D5J4E) 1:100 (Cell Signaling Tech 86630S), and mouse anti-DUX4 (P2G4) 1:250 (Geng et al., 2011). Cells were washed three times with 1×PBS containing 3% BSA, then secondary antibodies were incubated for 1 hr at room temperature: FITC-conjugated donkey anti-rabbit (Jackson immunoResearch) or TRITC-conjugated donkey anti-mouse (Jackson ImmunoResearch). Cells were washed once with 1×PBS containing 3% BSA then stained with DAPI (Sigma) for 10′ at room temperature and then visualized.

Pol-II = test: CUT&Tag of Pol-II occupancy; assay type: cell-based, human; details: MB135-iDUX4-CTD cells, IFNG ± doxycycline
Protocol: CUT&Tag was performed as previously described (Kaya-Okur et al., 2019) with the following modifications: MB135-iDUX4-CTD myoblasts were plated and allowed to grow to 70-80% confluence. Cells were left untreated, treated with 200 ng/ml IFNG for 16 hr, or pre-treated with 1 μg/mL doxycycline for 4 hr then had IFNG added directly to cell media for an additional 16 hr. Fresh cells were harvested and washed in PBS, crosslinked with 0.1% formaldehyde for 90 seconds, then counted and 1.25e6 cells were aliquoted per reaction tube. Drosophila S2 cells were spiked-in at a genomic ratio of 1:10. Nuclei were prepared from cells in Buffer NE1 (20 mM HEPES-KOH PH7.9, 10 mM KCl, 0.1% Triton X-100, 20% glycerol, 0.5 mM spermidine, Pierce Protease Inhibitors EDTA-free [PIA32955]) on ice for 10 min and then bound to concanavalin A-coated beads for 10 min. […]
CUT&Tag data were aligned to the GRCh38 patch 13 human genome e following the Benchtop CUT&Tag v3 protocol (Kaya-Okur et al., 2019). Subsequent to alignment we calculated 1× genome coverage normalization with read centering and read extension using deepTools' bamCoverage (Ramírez, 2016) then mapped the resulting coverage tracks to regions of interest using bedtools' map function (Aaron R. Quinlan, 2010). […]

| Substance | STAT1 nuclear distribution (STAT1) | Pol-II recruitment to ISGs (Pol-II) |
| --- | --- | --- |
| DUX4: human DUX4 protein SEQ ID NO:3 expressed from doxycycline inducible codon altered transgene SEQ ID NO:2 | no longer evenly distributed in the nucleus and shows overall decreased abundance |  |
| longCTD: 3×FLAG tag and nls in frame with carboxyterminal 271 amino acids of DUX4 (aa154-424), SEQ ID NOS: 8-9 |  | blocked Pol-II recruitment to ISGs without affecting occupancy at other genes; also recorded: blocks Pol-II recruitment |
